Literature values as cited in article PMC9747160.
pKd: −log10 of the molar value.

Molecular target: APOBEC3B CTD (Homo sapiens) (UniProt Q9UH17)
Assay: BLI

Sequence of UniProt Q9UH17 (Q9UH17 187-382): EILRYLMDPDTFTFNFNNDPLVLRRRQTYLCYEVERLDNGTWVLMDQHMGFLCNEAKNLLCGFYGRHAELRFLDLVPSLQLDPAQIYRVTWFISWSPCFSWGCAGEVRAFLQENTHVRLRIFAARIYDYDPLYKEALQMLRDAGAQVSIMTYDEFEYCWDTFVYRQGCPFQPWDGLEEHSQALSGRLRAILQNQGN

BORF2 (from UniProt P03190)
pKd: 9.00
